From publication doi:10.1101/2020.10.06.328377

Columns and labels:
[1] = target: MsSepF_(core) (Methanobrevibacter smithii SepF, C-terminal FtsZ-binding core, amino acids 54 to 149) (Methanobrevibacter smithii)
[2] = target: MsSepF_(core) (Methanobrevibacter smithii SepF, C-terminal FtsZ-binding core, amino acids 54 to 149) (Methanobrevibacter smithii); assay: thermal shift assay

stoichiometry N [1] | melting temperature of MsSepFcore upon addition of MsFtsZCTD (70.6 °C without) [2] | Molecule
2 |  | MsSepF_(core) (Methanobrevibacter smithii SepF, C-terminal FtsZ-binding core, amino acids 54 to 149) (domain or fragment)
 | 82.3 °C | NEDQLDDFIDGIF [FtsZCTD peptide (C-terminal domain of M. smithii FtsZ)]
